Reference: patent US20220119534A1 (DRAGONFLY THERAPEUTICS, published 2022)
Positions count from the first letter of the chain named.

How the values were obtained:
[1] = molecular target: T1, human CLEC12A on cells (HL60, PL21, Ba/F3-hCLEC12A) (human, UniProt Q5QGZ9 1-265); test: flow cytometry, HL60 cells
T1 construct: Endogenous on the AML lines HL60 and PL21; brought into mouse Ba/F3 cells by retroviral transduction; The cell line stands under assay; also called CLL-1
T1 sequence: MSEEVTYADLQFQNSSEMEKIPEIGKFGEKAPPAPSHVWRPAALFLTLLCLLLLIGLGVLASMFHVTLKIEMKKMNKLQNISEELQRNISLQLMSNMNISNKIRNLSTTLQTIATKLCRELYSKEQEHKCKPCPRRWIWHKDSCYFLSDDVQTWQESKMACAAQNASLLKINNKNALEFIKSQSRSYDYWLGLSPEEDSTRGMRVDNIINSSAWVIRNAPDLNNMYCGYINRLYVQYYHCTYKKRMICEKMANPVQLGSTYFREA

[2] = molecular target: T1, human CLEC12A on cells (HL60, PL21, …); test: flow cytometry, PL21 cells
[3] = molecular target: T1, human CLEC12A on cells (HL60, PL21, …); test: flow cytometry, Ba/F3-hCLEC12A cells
[4] = molecular target: T1, human CLEC12A on cells (HL60, PL21, …); test: flow cytometry, 40 nM, MFI after 2 h 37 C relative to 2 h on ice, HL60 cells
[5] = molecular target: T1, human CLEC12A on cells (HL60, PL21, …); test: flow cytometry, 40 nM, MFI after 2 h 37 C relative to 2 h on ice, PL21 cells
[6] = molecular target: T2, recombinant human CLEC12A-His (human, UniProt Q5QGZ9 65-265); test: SPR screening
T2 construct: also called hCLEC12A-His; hCLEC12A
T2 sequence: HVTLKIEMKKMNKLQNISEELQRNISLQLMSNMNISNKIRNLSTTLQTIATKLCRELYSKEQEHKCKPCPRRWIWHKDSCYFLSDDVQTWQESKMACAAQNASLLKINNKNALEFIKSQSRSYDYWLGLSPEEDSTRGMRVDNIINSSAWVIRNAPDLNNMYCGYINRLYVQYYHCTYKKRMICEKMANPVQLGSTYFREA

[7] = molecular target: T2, recombinant human CLEC12A-His; test: SPR
[8] = molecular target: T3, de-sialylated hCLEC12A (human, UniProt Q5QGZ9 65-265, terminal sialic acids removed (neuraminidase)); test: SPR
T3 construct: also called De-sialylated CLEC12A
T3 sequence: T2 sequence

[9] = molecular target: T4, de-glycosylated hCLEC12A (human, UniProt Q5QGZ9 65-265, N-linked glycans removed (PNGase F)); test: SPR
T4 construct: also called PNGase-treated hCLEC12A; De-glycosylated CLEC12A
T4 sequence: T2 sequence

[10] = molecular target: T2, recombinant human CLEC12A-His; test: SPR, purified murine mAb
[11] = molecular target: T5, recombinant cynomolgus CLEC12A-His (cynomolgus monkey, UniProt A0A2K5WXQ4 71-271); test: SPR, purified murine mAb
T5 construct: also called cCLEC12A-His; cCLEC12A
T5 sequence: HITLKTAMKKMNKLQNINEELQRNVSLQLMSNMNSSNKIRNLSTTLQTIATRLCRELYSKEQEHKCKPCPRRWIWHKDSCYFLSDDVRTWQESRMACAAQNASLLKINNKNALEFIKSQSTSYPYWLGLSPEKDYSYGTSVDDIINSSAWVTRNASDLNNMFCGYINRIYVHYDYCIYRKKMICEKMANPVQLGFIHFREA

[12] = molecular target: T6, Human CLEC12A expressed on cells (Ba/F3-hCLEC12A, PL21, HL60) (human, UniProt Q5QGZ9 1-265); test: cell-based or functional assay
T6 sequence: T1 sequence

[13] = molecular target: T6, Human CLEC12A expressed on cells …; test: cell-based or functional assay; remark: listed apart in the source

B1: F3'-1602 TriNKET (other)
chain: QLQLQESGPGLVKPSETLSLTCTVSGFSLTNYGLHWIRQPPGKCLEWIGVIWSGGKTDYNPSLKSRVTISKDTSKNQFSLKLSSVQAADTAVYYCAKYDYDDSLDYWGQGTLVTVSSGGGGSGGGGSGGGGSGGGGSDIQMTQSPSSLSASVGDRVTITCHASQNINFWLSWYQQKPGKAPKLLIYEASNLHTGVPSRFSGSGSGTRFTLTISSLQPEDIATYYCQQSHSYPLTFGCGTKLEIKGSDKTHTCPPCPAPELLGGPSVFLFPPKPKDTLMISRTPEVTCVVVDVSHEDPEVKFNWYVDGVEVHNAKTKPREEQYNSTYRVVSVLTVLHQDWLNGKEYKCKVSNKALPAPIEKTISKAKGQPREPRVYTLPPCRDELTKNQVSLTCLVKGFYPSDIAVEWESNGQPENNYKTTPPVLVSDGSFTLYSKLTVDKSRWQQGNVFSCSVMHEALHNHYTQKSLSLSPG
heavy: EVQLVESGGGLVKPGGSLRLSCAASGFTFSSYSMNWVRQAPGKGLEWVSSISSSSSYIYYADSVKGRFTISRDNAKNSLYLQMNSLRAEDTAVYYCARGAPIGAAAGWFDPWGQGTLVTVSSASTKGPSVFPLAPSSKSTSGGTAALGCLVKDYFPEPVTVSWNSGALTSGVHTFPAVLQSSGLYSLSSVVTVPSSSLGTQTYICNVNHKPSNTKVDKKVEPKSCDKTHTCPPCPAPELLGGPSVFLFPPKPKDTLMISRTPEVTCVVVDVSHEDPEVKFNWYVDGVEVHNAKTKPREEQYNSTYRVVSVLTVLHQDWLNGKEYKCKVSNKALPAPIEKTISKAKGQPREPQVCTLPPSRDELTENQVSLTCLVKGFYPSDIAVEWESNGQPENNYKTTPPVLDSDGSFFLYSWLTVDKSRWQQGNVFSCSVMHEALHNHYTQKSLSLSPG
light: DIQMTQSPSSVSASVGDRVTITCRASQGISSWLAWYQQKPGKAPKLLIYAASSLQSGVPSRFSGSGSGTDFTLTISSLQPEDFATYYCQQGVSFPRTFGGGTKVEIKRTVAAPSVFIFPPSDEQLKSGTASVVCLLNNFYPREAKVQWKVDNALQSGNSQESVTEQDSKDSTYSLSSTLTLSKADYEKHKVYACEVTHQGLSSPVTKSFNRGEC
notes: F3' format TriNKET; also called AB0237
With B1 the EC50 [1] was 1.01 nM, the “FOB (fold over background)” value [1] was 66 fold and the EC50 [2] was 0.52 nM. For the same binder, the “FOB (fold over background)” value [2] was 15 fold, the EC50 [3] was 1.54 nM and the “FOB (fold over background)” value [3] was 341 fold. For the same binder, the percent surface retention [4] was 106% and the percent surface retention [5] was 91%.

B2: AB0089 TriNKET (other)
chain: B1 chain with S53V, K56A, K71V, Y98G, D101G, S103T, R207D, I220F
heavy: B1 heavy
light: B1 light
notes: F3' format TriNKET
B2 was tested, and the EC50 [1] was 1.08 nM, the “FOB (fold over background)” value [1] was 70 fold and the EC50 [2] was 0.34 nM. The “FOB (fold over background)” value [2] was 16 fold, the EC50 [3] was 2.28 nM and the “FOB (fold over background)” value [3] was 434 fold. It also gave a percent surface retention [4] of 147% and a percent surface retention [5] of 124%.

B3: m9F11-hIgG1 (antibody, V domains shown)
VH: EVQLQESGGGLVQPGGSRKLSCAASGFTFNSFGMHWVRQAPEKGLEWVAFISSGSTSIYYANTVKGRFTISRDNPKNTLFLQMTSLRSEDTAMYYCARDGYPTGGAMDYWGQGTSVTVSS
VL: DIKMTQSPSSMYASLGERVTITCKASQDIYNYLSWFQLKPGKSPRPLIYRANILVSGVPSKFSGSGSGQDYSLTINSLEYEDLGIYYCLQFDAFPFTFGSGTKLEIK
notes: also called chimeric parent mouse 9F11.B7 mAb
In the case of B3, the Kd [6] is reported as 1.07 nM, the koff [6] is reported as 0.00102 s⁻¹ and the kon [6] is reported as 950000 M⁻¹ s⁻¹.

B4: Murine F3'-9F11 (other)
VH: B3 VH
VL: B3 VL
notes: the text calls it clone 9F11.B7; F3' construct (scFv order, Fc, NKG2D Fab) not spelled out
B4 gave a Kd [7] of 0.96 nM, a koff [7] of 0.00111 s⁻¹ and a kon [7] of 1.15e+06 M⁻¹ s⁻¹. The Kd [8] was 0.62 nM, the koff [8] was 0.00098 s⁻¹ and the kon [8] was 1.58e+06 M⁻¹ s⁻¹. It also gave a Kd [9] of 0.34 nM, a koff [9] of 0.000374 s⁻¹ and a kon [9] of 1.11e+06 M⁻¹ s⁻¹.

B5: 15A10.G8 (antibody, V domains shown)
VH: EVQLQESGAELVRSGASIKLSCAASAFNIKDYFIHWVRQRPDQGLEWIGWIDPENDDTEYAPKFQDKATMTADTSSNTAYLQLSSLTSADTAVYYCNALWSRGGYFDYWGQGTTLTVSS
VL: EVLLTQSPAIIAASPGEKVTITCSARSSVSYMSWYQQKPGSSPKIWIYGISKLASGVPARFSGSGSGTYFSFTINNLEAEDVATYYCQQRSYYPFTFGSGTKLEIK
notes: Murine mAb
In the case of B5, the Kd [10] is reported as 1.6 nM, the koff [10] is reported as 0.000494 s⁻¹ and the kon [10] is reported as 301000 M⁻¹ s⁻¹. It also gave a Kd [11] of 3.3 nM, a koff [11] of 0.000659 s⁻¹ and a kon [11] of 196000 M⁻¹ s⁻¹.

B6: AB0306 mAb (Humanized 1797 anti-CLEC12A mAb) (antibody, IgG1, V domains shown)
VH: EVQLVESGGGVVQPGGSLRLSCAASGFTFNAFGMHWVRQAPGKGLEWVAFISSGSTSIYYANTVKGRFTISRDNSKNTLYLQMNSLRAEDTAVYYCARDGYPTGGAMDYWGQGTSVTVSS
VL: DIQMTQSPSSLSASVGDRVTITCKASQDIYNYLSWFQQKPGKAPKPLIYRANILVSGVPSRFSGSGSGQDYTFTISSLQPEDIATYYCLQFDAFPFTFGSGTKLEIK
notes: Parental hIgG1 mAb of AB0192; also called parental mAb of AB0192
For B6, the EC50 [1] was 0.26 nM, the “FOB (fold over background)” value [1] was 47 fold and the EC50 [2] was 0.18 nM. The “FOB (fold over background)” value [2] was 12 fold, the EC50 [3] was 0.68 nM and the “FOB (fold over background)” value [3] was 303 fold. It also gave a percent surface retention [4] of 114% and a percent surface retention [5] of 106%.

B7: AB0305 mAb (Humanized 1739 anti-CLEC12A mAb) (antibody, V domains shown)
VH: QLQLQESGPGLVKPSETLSLTCTVSGFSLTNYGLHWIRQPPGKGLEWIGVIWVGGATDYNPSLKSRVTISVDTSKNQFSLKLSSVQAADTAVYYCAKGDYGDTLDYWGQGTLVTVSS
VL: DIQMTQSPSSLSASVGDRVTITCHASQNINFWLSWYQQKPGKAPKLLIYEASNLHTGVPSRFSGSGSGTDFTLTISSLQPEDFATYYCQQSHSYPLTFGSGTKLEIK
In the case of B7, the “EC50, primary NK mediated cytotoxic killing of PL21 cells” value [12] is reported as 1.85 nM, the “% Max, ADCP activity of M0 macrophages against PL21 cells” value [13] is reported as 10% and the “EC50, ADCP activity of M0 macrophages against PL21 cells” value [13] is reported as 0.02 nM.

B8: AB0305 mAb (Humanized 1739 anti-CLEC12A mAb) (antibody, IgG1, V domains shown)
VH: B7 VH
VL: B7 VL
notes: Parental hIgG1 mAb; also called parental mAb of AB0089
In the case of B8, the EC50 [1] is reported as 0.12 nM, the “FOB (fold over background)” value [1] is reported as 53 fold and the EC50 [2] is reported as 0.12 nM. The “FOB (fold over background)” value [2] was 15 fold, the EC50 [3] was 0.67 nM and the “FOB (fold over background)” value [3] was 279 fold. For the same binder, the percent surface retention [4] was 90% and the percent surface retention [5] was 92%.

B9: AB0037 mAb (Humanized 1602 anti-CLEC12A mAb) (antibody, V domains shown)
VH: B7 VH with V53S, A56K, V71K, G98Y, G101D, T103S
VL: B7 VL with D70R, F83I, S100G
notes: Parental mAb of AB0237; also called humanized mAb 16B8.C8; parental mAb of AB0237
With B9 the EC50 [1] was 0.52 nM, the “FOB (fold over background)” value [1] was 51 fold and the EC50 [2] was 0.52 nM. The “FOB (fold over background)” value [2] was 13 fold, the EC50 [3] was 1.4 nM and the “FOB (fold over background)” value [3] was 301 fold. For the same binder, the percent surface retention [4] was 74% and the percent surface retention [5] was 79%.
